System: K562 cells
Test: AAV6 transduction of K562 cells after enzyme / inhibitor treatment
Assay type: cell-based, human
From the text: More recently, Denard et al. reported that galectin-3-binding protein in human sera agglutinates AAV6 vectors, which results in decreased transduction efficiency of these vectors. […] The identity of the putative receptor for AAV6 vectors in human CD34^+ cells remains elusive, and additional studies are warranted. […] The implication is that AAV6 uses a protein rather than a lipid on K562 cells for binding and entry into these cells. In addition, because AAV6 is known to have evolved from recombination between AAV1 and AAV2, and because AAV2 uses heparan sulfateproteoglycan (HSPG) as the primary cellular receptor, the level of HSPG expression on K562 cells surface was examined by FACS. […] The effect of inhibitors of O-linked and N-linked glycosylation was also evaluated on the transduction efficiency of AAV6 vectors in K562 cells.

B1: Proteinase K: Proteinase K (Sigma-Aldrich Co.) (protein, UniProt P06873 106-384, looked up)
Proteinase K: AAQTNAPWGLARISSTSPGTSTYYYDESAGQGSCVYVIDTGIEASHPEFEGRAQMVKTYYYSSRDGNGHGTHCAGTVGSRTYGVAKKTQLFGVKVLDDNGSGQYSTIIAGMDFVASDKNNRNCPKGVVASLSLGGGYSSSVNSAAARLQSSGVMVAVAAGNNNADARNYSPASEPSVCTVGASDRYDRRSSFSNYGSVLDIFGPGTSILSTWIGGSTRSISGTSMATPHVAGLAAYLMTLGKTTAASACRYIADTANKGDLSNIPFGTVNLLAYNNYQA
For B1, the “effect on AAV6 vector-mediated transduction of K562 cells” value was “dramatically decrease”.
